Measured values: patent US20210388087A1

Legend:
[1] = molecular target: Human CD3eg linker (human); experiment: SPR; fold vs parent H183/L072
[2] = molecular target: Human CD137 ECD (human); experiment: Biacore SPR, vs parent H183/L072
[3] = molecular target: Human CD3eg linker (human); experiment: SPR (Biacore T200), 37 degrees C, antibody captured by anti-human Fc on CM4 chip, recombinant human CD3 as analyte, 1:1 model
[4] = molecular target: Human CD3eg linker (human); experiment: affinity relative to template H183/L072, single-mutation scan
[5] = molecular target: CD3 epsilon homodimer protein (UniProt P07766); experiment: SPR, antibody over immobilised CD3e homodimer
Chain of CD3 epsilon homodimer protein (P07766 23-126): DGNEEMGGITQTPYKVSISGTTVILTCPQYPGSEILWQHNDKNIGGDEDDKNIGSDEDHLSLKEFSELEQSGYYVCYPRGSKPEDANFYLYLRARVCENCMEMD

Chain of Human CD3eg linker (human) (chain, as listed by the source limits assumed): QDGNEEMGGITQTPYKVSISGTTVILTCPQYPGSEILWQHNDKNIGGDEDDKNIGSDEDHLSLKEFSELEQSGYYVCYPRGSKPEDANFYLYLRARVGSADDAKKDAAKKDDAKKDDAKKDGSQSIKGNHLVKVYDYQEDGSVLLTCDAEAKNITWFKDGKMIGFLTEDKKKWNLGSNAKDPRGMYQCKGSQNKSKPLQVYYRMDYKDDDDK
Chain of Human CD137 ECD (human) (chain, as listed by the source limits assumed): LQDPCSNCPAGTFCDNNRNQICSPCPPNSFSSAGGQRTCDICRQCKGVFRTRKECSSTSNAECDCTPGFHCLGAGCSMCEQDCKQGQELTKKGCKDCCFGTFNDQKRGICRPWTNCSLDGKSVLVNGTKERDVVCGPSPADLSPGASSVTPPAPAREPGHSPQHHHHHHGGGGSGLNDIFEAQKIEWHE

Row | fold change of affinity [1] [fold] | fold change of affinity [2] [fold] | fold change of affinity for CD3 [4] [fold] | Binder | other results
1 | 0 | 0 |  | H183/L072 VL A25W (antibody, name in Kabat numbering, V domains shown) VH: QVQLVESGGGLVQPGRSLRLSCAASGFTFSNAWMHWVRQAPGKGLEWVAQIKDKGNAYAAYYAPSVKGRFTISRDDSKNSIYLQMNSLKTEDTAVYYCHYVHYASASTVLPAFGVDAWGQGTTVTVSS VL: DIVMTQSPLSLPVTPGEPASISCQWSQELVHMNRNTYLHWYQQKPGQAPRLLIYKVSNRFPGVPDRFSGSGSGTDFTLKISRVEAEDVGVYYCAQGTSVPFTFGQGTKLEIK | 
2 |  |  |  | GPC3/Ctrl × CD3 trispecific antibody (antibody, part only; not given: control Fv, constant regions, Fc, V domains shown, not shown: another chain or arm of the molecule; a dimerising Fc or GST; large carriers; small tags and cut ends) VH 1: QVQLVESGGGLVQPGRSLRLSCAASGFTFSNAWMHWVRQAPGKGLEWVAQIKDRANSYNTYYAESVKGRFTISRDDSKNSIYLQMNSLKTEDTAVYYCRYVHYTTYAGSSFSYGVDAWGQGTTVTVSS VL 1: DIVMTQSPLSLPVTPGEPASISCRSSQPLVHSNRNTYLHWYQQKPGQAPRLLIYKVSNRFSGVPDRFSGSGSGTDFTLKISRVEAEDVGVYYCGQGTQVPYTFGQGTKLEIK VH 2: QVQLVQSGAEVKKPGASVTVSCKASGYTFTDYEMHWIRQPPGEGLEWIGAIDGPTPDTAYSEKFKGRVTLTADKSTSTAYMELSSLTSEDTAVYYCTRFYSYTYWGQGTLVTVSS VL 2: DIVMTQSPLSLPVTPGEPASISCRSSQPLVHSNRNTYLHWYQQKPGQAPRLLIYKVSNRFSGVPDRFSGSGSGTDFTLKISRVEAEDVGVYYCGQGTQVPYTFGQGTKLEIK | Kd [3]: 17.8 nM; koff [3]: 0.00151 s⁻¹; kon [3]: 85000 M⁻¹ s⁻¹
3 |  |  |  | Ctrl/Ctrl × CD3 trispecific antibody (antibody, part only; not given: control Fvs, constant regions, Fc, V domains shown, not shown: another chain or arm of the molecule; a dimerising Fc or GST; large carriers) VH: QVQLVESGGGLVQPGRSLRLSCAASGFTFSNAWMHWVRQAPGKGLEWVAQIKDRANSYNTYYAESVKGRFTISRDDSKNSIYLQMNSLKTEDTAVYYCRYVHYTTYAGSSFSYGVDAWGQGTTVTVSS VL: DIVMTQSPLSLPVTPGEPASISCRSSQPLVHSNRNTYLHWYQQKPGQAPRLLIYKVSNRFSGVPDRFSGSGSGTDFTLKISRVEAEDVGVYYCGQGTQVPYTFGQGTKLEIK | Kd [3]: 17.5 nM; koff [3]: 0.00147 s⁻¹; kon [3]: 83700 M⁻¹ s⁻¹
4 | 0 | 0 |  | H183/L072 VL H34W (antibody, name in Kabat numbering, V domains shown) VH: QVQLVESGGGLVQPGRSLRLSCAASGFTFSNAWMHWVRQAPGKGLEWVAQIKDKGNAYAAYYAPSVKGRFTISRDDSKNSIYLQMNSLKTEDTAVYYCHYVHYASASTVLPAFGVDAWGQGTTVTVSS VL: DIVMTQSPLSLPVTPGEPASISCQASQELVHMNRNTYLWWYQQKPGQAPRLLIYKVSNRFPGVPDRFSGSGSGTDFTLKISRVEAEDVGVYYCAQGTSVPFTFGQGTKLEIK | 
5 |  |  | 0 | H183/L072 with K50Y (Kabat) in VL dBBDu072L (antibody, name in Kabat numbering, V domains shown) VH: QVQLVESGGGLVQPGRSLRLSCAASGFTFSNAWMHWVRQAPGKGLEWVAQIKDKGNAYAAYYAPSVKGRFTISRDDSKNSIYLQMNSLKTEDTAVYYCHYVHYASASTVLPAFGVDAWGQGTTVTVSS VL: DIVMTQSPLSLPVTPGEPASISCQASQELVHMNRNTYLHWYQQKPGQAPRLLIYYVSNRFPGVPDRFSGSGSGTDFTLKISRVEAEDVGVYYCAQGTSVPFTFGQGTKLEIK | 
6 | 0 | 0 |  | H183/L072 VL H34Y (antibody, name in Kabat numbering, V domains shown) VH: QVQLVESGGGLVQPGRSLRLSCAASGFTFSNAWMHWVRQAPGKGLEWVAQIKDKGNAYAAYYAPSVKGRFTISRDDSKNSIYLQMNSLKTEDTAVYYCHYVHYASASTVLPAFGVDAWGQGTTVTVSS VL: DIVMTQSPLSLPVTPGEPASISCQASQELVHMNRNTYLYWYQQKPGQAPRLLIYKVSNRFPGVPDRFSGSGSGTDFTLKISRVEAEDVGVYYCAQGTSVPFTFGQGTKLEIK | 
7 |  |  | 0 | H183/L072 with G91Y (Kabat) in VL dBBDu072L (antibody, name in Kabat numbering, V domains shown) VH: QVQLVESGGGLVQPGRSLRLSCAASGFTFSNAWMHWVRQAPGKGLEWVAQIKDKGNAYAAYYAPSVKGRFTISRDDSKNSIYLQMNSLKTEDTAVYYCHYVHYASASTVLPAFGVDAWGQGTTVTVSS VL: DIVMTQSPLSLPVTPGEPASISCQASQELVHMNRNTYLHWYQQKPGQAPRLLIYKVSNRFPGVPDRFSGSGSGTDFTLKISRVEAEDVGVYYCAQYTSVPFTFGQGTKLEIK | 
8 | 0 | 0 |  | H183/L072 VL L27bY (antibody, name in Kabat numbering, V domains shown) VH: QVQLVESGGGLVQPGRSLRLSCAASGFTFSNAWMHWVRQAPGKGLEWVAQIKDKGNAYAAYYAPSVKGRFTISRDDSKNSIYLQMNSLKTEDTAVYYCHYVHYASASTVLPAFGVDAWGQGTTVTVSS VL: DIVMTQSPLSLPVTPGEPASISCQASQEYVHMNRNTYLHWYQQKPGQAPRLLIYKVSNRFPGVPDRFSGSGSGTDFTLKISRVEAEDVGVYYCAQGTSVPFTFGQGTKLEIK | 
9 | 0 | 0 |  | H183/L072 VL A25Y (antibody, name in Kabat numbering, V domains shown) VH: QVQLVESGGGLVQPGRSLRLSCAASGFTFSNAWMHWVRQAPGKGLEWVAQIKDKGNAYAAYYAPSVKGRFTISRDDSKNSIYLQMNSLKTEDTAVYYCHYVHYASASTVLPAFGVDAWGQGTTVTVSS VL: DIVMTQSPLSLPVTPGEPASISCQYSQELVHMNRNTYLHWYQQKPGQAPRLLIYKVSNRFPGVPDRFSGSGSGTDFTLKISRVEAEDVGVYYCAQGTSVPFTFGQGTKLEIK | 
10 |  |  | 0 | H183/L072 with Q90Y (Kabat) in VL dBBDu072L (antibody, name in Kabat numbering, V domains shown) VH: QVQLVESGGGLVQPGRSLRLSCAASGFTFSNAWMHWVRQAPGKGLEWVAQIKDKGNAYAAYYAPSVKGRFTISRDDSKNSIYLQMNSLKTEDTAVYYCHYVHYASASTVLPAFGVDAWGQGTTVTVSS VL: DIVMTQSPLSLPVTPGEPASISCQASQELVHMNRNTYLHWYQQKPGQAPRLLIYKVSNRFPGVPDRFSGSGSGTDFTLKISRVEAEDVGVYYCAYGTSVPFTFGQGTKLEIK | 
11 |  |  |  | CE115HA000/GLS3000 H27dD (antibody, IgG1, name in Kabat numbering, V domains shown) VH: QVQLVESGGGVVQPGRSLRLSCAASGFTFSNAWMHWVRQAPGKGLEWVAQIKAKSNNYATYYAESVKGRFTISRDDSKNSLYLQMNSLKTEDTAVYYCRYVHYGAYYGVDAWGQGTTVTVSS VL: DIVMTQSPLSLPVTPGEPASISCRSSQSLVDSNRNTYLHWYQQKPGQAPRLLIYKVSNRFSGVPDRFSGSGSGTDFTLKISRVEAEDVGVYYCGQGTQVPYTFGQGTKLEIK | KD ratio to GLS3000 [5]: 13600
12 |  |  | 0 | H183/L072 with V51Y (Kabat) in VL dBBDu072L (antibody, name in Kabat numbering, V domains shown) VH: QVQLVESGGGLVQPGRSLRLSCAASGFTFSNAWMHWVRQAPGKGLEWVAQIKDKGNAYAAYYAPSVKGRFTISRDDSKNSIYLQMNSLKTEDTAVYYCHYVHYASASTVLPAFGVDAWGQGTTVTVSS VL: DIVMTQSPLSLPVTPGEPASISCQASQELVHMNRNTYLHWYQQKPGQAPRLLIYKYSNRFPGVPDRFSGSGSGTDFTLKISRVEAEDVGVYYCAQGTSVPFTFGQGTKLEIK | 
13 |  |  | 0 | H183/L072 with P95Y (Kabat) in VL dBBDu072L (antibody, name in Kabat numbering, V domains shown) VH: QVQLVESGGGLVQPGRSLRLSCAASGFTFSNAWMHWVRQAPGKGLEWVAQIKDKGNAYAAYYAPSVKGRFTISRDDSKNSIYLQMNSLKTEDTAVYYCHYVHYASASTVLPAFGVDAWGQGTTVTVSS VL: DIVMTQSPLSLPVTPGEPASISCQASQELVHMNRNTYLHWYQQKPGQAPRLLIYKVSNRFPGVPDRFSGSGSGTDFTLKISRVEAEDVGVYYCAQGTSVYFTFGQGTKLEIK | 
14 |  |  | 0 | H183/L072 with T92Y (Kabat) in VL dBBDu072L (antibody, name in Kabat numbering, V domains shown) VH: QVQLVESGGGLVQPGRSLRLSCAASGFTFSNAWMHWVRQAPGKGLEWVAQIKDKGNAYAAYYAPSVKGRFTISRDDSKNSIYLQMNSLKTEDTAVYYCHYVHYASASTVLPAFGVDAWGQGTTVTVSS VL: DIVMTQSPLSLPVTPGEPASISCQASQELVHMNRNTYLHWYQQKPGQAPRLLIYKVSNRFPGVPDRFSGSGSGTDFTLKISRVEAEDVGVYYCAQGYSVPFTFGQGTKLEIK | 
